In general, Kd refers to the free concentration of one partner at which half of the binding sites on the other are occupied at equilibrium, for simple one-to-one binding. By koff is commonly meant the rate constant with which the complex falls apart. What is called kon is a measure of how fast the partners come together.

The target in experiment [1] is T1, human PSMA (human, UniProt Q04609 44-750, limits assumed).
T1 construct: also called huPSMA; hPSMA
Kind of experiment: relative binding to PSMA, uTCE.

The target of experiment [2] is T2, human PSMA-Fc (human, UniProt Q04609 44-750).
T2 construct: also called Human PSMA-Fc fusion
T2 sequence (Q04609 44-750 limits assumed): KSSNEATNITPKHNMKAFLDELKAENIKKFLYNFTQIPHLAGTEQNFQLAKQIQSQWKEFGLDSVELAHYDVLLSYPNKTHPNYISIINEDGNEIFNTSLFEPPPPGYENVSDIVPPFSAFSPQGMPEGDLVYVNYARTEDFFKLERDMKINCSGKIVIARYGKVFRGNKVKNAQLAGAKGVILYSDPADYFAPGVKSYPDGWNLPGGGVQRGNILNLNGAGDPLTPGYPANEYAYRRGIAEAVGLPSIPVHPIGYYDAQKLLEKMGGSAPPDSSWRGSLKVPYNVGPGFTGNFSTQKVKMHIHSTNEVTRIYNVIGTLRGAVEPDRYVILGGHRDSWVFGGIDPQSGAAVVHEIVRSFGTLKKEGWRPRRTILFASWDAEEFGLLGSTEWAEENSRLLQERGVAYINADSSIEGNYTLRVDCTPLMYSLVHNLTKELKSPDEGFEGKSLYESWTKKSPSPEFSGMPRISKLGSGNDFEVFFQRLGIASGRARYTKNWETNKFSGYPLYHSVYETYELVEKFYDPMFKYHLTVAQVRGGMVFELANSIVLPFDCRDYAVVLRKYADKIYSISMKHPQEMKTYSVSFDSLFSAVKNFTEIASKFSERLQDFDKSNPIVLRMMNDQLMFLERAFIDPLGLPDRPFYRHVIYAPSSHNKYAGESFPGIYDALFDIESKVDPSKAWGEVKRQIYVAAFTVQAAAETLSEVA
Kind of experiment: Octet.

Experiment [3] addresses T2, human PSMA-Fc. Description: Octet. This is another data set of the same source. A general note: Biolayer interferometry detects binding as a change in optical thickness at a sensor tip.
Experiment [4] concerns the target T2, human PSMA-Fc. Description: Octet, PSMA-Fc. How it is done: Binding affinity of select PSMA PTE variants was tested by Octet.
The target of experiment [5] is T1, human PSMA. Description: binding screen.
For experiment [6], the target named is T3, cynomolgus monkey CD3 epsilon (cynomolgus monkey, UniProt Q95LI5 22-117, limits assumed).
T3 construct: also called cyCD3e; cyno CD3
T3 sequence (looked up): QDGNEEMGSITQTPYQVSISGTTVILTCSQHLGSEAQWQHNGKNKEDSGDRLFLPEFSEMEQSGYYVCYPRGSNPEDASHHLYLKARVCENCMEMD
Kind of experiment: Biacore. In general terms: Surface plasmon resonance follows binding to a sensor surface in real time, without labels.

The target of experiment [7] is T4, human CD3 epsilon (human, UniProt P07766 23-126, limits assumed).
T4 construct: also called huCD3e
T4 sequence (P07766 23-126 limits assumed): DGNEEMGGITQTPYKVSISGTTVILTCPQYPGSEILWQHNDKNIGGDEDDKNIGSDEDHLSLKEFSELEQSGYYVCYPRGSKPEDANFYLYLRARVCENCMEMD
Description: Biacore.

For experiment [8], the target named is T3, cynomolgus monkey CD3 epsilon. Kind of experiment: Octet.
The target in experiment [9] is T4, human CD3 epsilon. Kind of experiment: Octet.
Experiment [10] concerns the target T1, human PSMA. Kind of experiment: Octet.
Experiment [11] has as its target T5, cynomolgus monkey PSMA (cynomolgus monkey, UniProt A0A2K5VNZ0 44-750).
T5 construct: also called cyPSMA; cyno PSMA
Kind of experiment: Octet.

Experiment [12] addresses T1, human PSMA. Description: Biacore.
The target of experiment [13] is T5, cynomolgus monkey PSMA. Kind of experiment: Biacore.
In experiment [14] the target is T1, human PSMA. Kind of experiment: binding kinetics, uTCE.

T1 sequence (Q04609 44-750 limits assumed): as the sequence (Q04609 44-750 limits assumed) above

B1: uTCE of AC2755 (bispecific antibody, V domains shown)
VH: QVQLVESGGGVVQPGRSLRLSCAASGRTFDVYAMGWVRQAPGKERELVAAINWSGSNKFHADSVKGRFTISRDNSKNTLYLQMNSLKTEDTAMYFCAASTRLYGTTWYEFNDSDYWGQGTQVTVSS
notes: TCE with CD3.23; also called VHH41
B1: in experiment [1], the binding result was “binds”.

B2: uTCE of AC2750 (bispecific antibody, V domains shown)
VH: QVQLVESGGGVVQPGRSLRLSCAASGRTFDVYAMGWFRQAPGKGRELVAAINWSGSNKFHADSVKGRFTISRDNSKNTLYLQMNSLRPEDTAVYFCAASTRLYGTTWYEFNDSDYWGQGTQVTVSS
notes: TCE with CD3.23; also called VHH36
Regarding B2, the binding result in experiment [1] is given as “binds”.

B3: uTCE of AC3354 (bispecific antibody)
chain: QVQLVESGGGVVQPGRSLRLSCAASGRTFGIYVMGWVRQAPGKEREFVAAISWSGSNRLVSDSVKGRFTISRDNSKNTLYLQMNSLRAEDTAVYYCAASNRLYGRTWYDFNESDYWGQGTQVTVSSGATPPETGAETESPGELVVTQEPSLTVSPGGTVTLTCRSSNGAVTSSNYANWVQQKPGQAPRGLIGGTNKRAPGTPARFSGSLLGGKAALTLSGVQPEDEAVYYCALWYPNLWVFGGGTKLTVLGATPPETGAETESPGETTGGSAESEPPGEGEVQLLESGGGIVQPGGSLKLSCAASGFTFNTYAMNWVRQAPGKGLEWVARIRSKYNNYATYYADSVKDRFTISRDDSKNTVYLQMNNLKTEDTAVYYCVRHENFGNSYVSWFAHWGQGTLVTVSS
notes: also called PSMA.5 (15 mer)
Take B3: the Kd in experiment [2] stood at 3.5 nM. In experiment [3], binding was put at a Kd of 3.5 nM, the koff was 0.00027 s⁻¹ and the kon worked out at 77000 M⁻¹ s⁻¹.

B4: uTCE of AC3329 (bispecific antibody)
chain: QVQLVESGGGVVQPGRSLRLSCAASGRTFGIYVMGWVRQAPGKEREFVAAISWSGSNRKVSDSVKGRFTISRDNSKNTLYLQMNSLRAEDTAVYYCAASNRLYGRTWYDFNESDYWGQGTQVTVSSGGGGSGGGSELVVTQEPSLTVSPGGTVTLTCRSSNGAVTSSNYANWVQQKPGQAPRGLIGGTNKRAPGTPARFSGSLLGGKAALTLSGVQPEDEAVYYCALWYPNLWVFGGGTKLTVLGATPPETGAETESPGETTGGSAESEPPGEGEVQLLESGGGIVQPGGSLKLSCAASGFTFNTYAMNWVRQAPGKGLEWVARIRSKYNNYATYYADSVKDRFTISRDDSKNTVYLQMNNLKTEDTAVYYCVRHENFGNSYVSWFAHWGQGTLVTVSS
notes: also called PSMA.119
In experiment [4], B4 gave a Kd of 3.2 nM, a koff of 0.000248 s⁻¹ and a kon of 80000 M⁻¹ s⁻¹. In addition, the Kd in experiment [5] stood at 4.1 nM. In experiment [2], this molecule came in with a Kd of 3.2 nM.

B5: uTCE of AC3356 (bispecific antibody)
chain: QVQLVESGGGVVQPGRSLRLSCAASGRTFGIYVMGWVRQAPGKEREFVAAISWSGSNRLVSDSVKGRFTISRDNSKNTLYLQMNSLRAEDTAVYYCAASNRLYGRTWYDFNESDYWGQGTQVTVSSGGGGSGGGSEVQLLESGGGIVQPGGSLKLSCAASGFTFNTYAMNWVRQAPGKGLEWVARIRSKYNNYATYYADSVKDRFTISRDDSKNTVYLQMNNLKTEDTAVYYCVRHENFGNSYVSWFAHWGQGTLVTVSSGATPPETGAETESPGETTGGSAESEPPGEGELVVTQEPSLTVSPGGTVTLTCRSSNGAVTSSNYANWVQQKPGQAPRGLIGGTNKRAPGTPARFSGSLLGGKAALTLSGVQPEDEAVYYCALWYPNLWVFGGGTKLTVL
notes: CD3.23 in VH-VL order; also called PSMA.5 (domain swap)
The molecule B5 yielded a Kd in experiment [2] of 2.4 nM. Besides, in [3], binding was characterised by a dissociation constant (Kd) of 2.4 nM, the koff was determined as 0.00018 s⁻¹ and the kon amounted to 76000 M⁻¹ s⁻¹.

B6: uTCE of AC3353 (bispecific antibody)
chain: QVQLVESGGGVVQPGRSLRLSCAASGRTFGIYVMGWVRQAPGKEREFVAAISWSGSNRLVSDSVKGRFTISRDNSKNTLYLQMNSLRAEDTAVYYCAASNRLYGRTWYDFNESDYWGQGTQVTVSSGGGGSELVVTQEPSLTVSPGGTVTLTCRSSNGAVTSSNYANWVQQKPGQAPRGLIGGTNKRAPGTPARFSGSLLGGKAALTLSGVQPEDEAVYYCALWYPNLWVFGGGTKLTVLGATPPETGAETESPGETTGGSAESEPPGEGEVQLLESGGGIVQPGGSLKLSCAASGFTFNTYAMNWVRQAPGKGLEWVARIRSKYNNYATYYADSVKDRFTISRDDSKNTVYLQMNNLKTEDTAVYYCVRHENFGNSYVSWFAHWGQGTLVTVSS
notes: also called PSMA.5 (5 mer)
On to B6, for which, in [2], the Kd worked out at 2.1 nM. In experiment [3], this molecule came in with a Kd of 2.1 nM, a koff of 0.00022 s⁻¹ and a kon of 110000 M⁻¹ s⁻¹.

B7: uTCE from AC3928 (bispecific antibody)
chain: QVQLVESGGGVVQPGRSLRLSCAASGRTFGIYVWGWFRQAPGKEREFVGAMSWSGSNRKVSDSVKGRFTISRDNSKNTLYLQMNSLRAEDTAVYYCAASNKEYGRTWYDFNESDYWGQGTQVTVSSGGGGSGGGSELVVTQEPSLTVSPGGTVTLTCRSSNGAVTSSNYANWVQQKPGQAPRGLIGGTNKRAPGTPARFSGSLLGGKAALTLSGVQPEDEAVYYCALWYPNLWVFGGGTKLTVLSESATPESGPGTSPGATPESGPGTSESATPEVQLLESGGGIVQPGGSLKLSCAASGFTFNTYAMNWVRQAPGKGLEWVARIRSKYNNYATYYADSVKDRFTISRDDSKNTVYLQMNNLKTEDTAVYYCVRHENFGNSYVSWFAHWGQGTLVTVSS
notes: also called AMX500-P6 uTCE; PSMA.350-CD3.23
With B7, the Kd in experiment [6] amounted to 26.6 nM; in experiment [7], 27.3 nM; in [8] it was 44.9 nM; in experiment [9], 43 nM; in experiment [10], 13.2 nM; in experiment [11], 198 nM. For the same molecule, the Kd is 19 nM in experiment [12] and 354 nM in [13].

B8: uTCE from AC3445 (bispecific antibody)
chain: QVQLVESGGGVVQPGRSLRLSCAASGRTFGIYVMGWVRQAPGKEREFVAAISWSGSNRKVSDSVKGRFTISRDNSKNTLYLQMNSLRAEDTAVYYCAASNRLYGRTWYDFNESDYWGQGTQVTVSSGGGGSGGGSELVVTQEPSLTVSPGGTVTLTCRSSNGAVTSSNYANWVQQKPGQAPRGLIGGTNKRAPGTPARFSGSLLGGKAALTLSGVQPEDEAVYYCALWYPNLWVFGGGTKLTVLSESATPESGPGTSPGATPESGPGTSESATPEVQLLESGGGIVQPGGSLKLSCAASGFTFNTYAMNWVRQAPGKGLEWVARIRSKYNNYATYYADSVKDRFTISRDDSKNTVYLQMNNLKTEDTAVYYCVRHENFGNSYVSWFAHWGQGTLVTVSS
notes: also called PSMA.119-CD3.23
In the case of B8, the Kd in experiment [8] came to 40 nM; in experiment [9], 34.8 nM; in experiment [10], 6.2 nM; in experiment [11] it was 47.5 nM.

B9: uTCE from AC3934 (bispecific antibody)
chain: QVQLVESGGGVVQPGRSLRLSCAASGRTFGIYVWGWVRQAPGKEREFVGAISWSGSNRKVSDSVKGRFTISRDNSKNTLYLQMNSLRAEDTAVYYCAASNKLYGRTWYDFNESDYWGQGTQVTVSSGGGGSGGGSELVVTQEPSLTVSPGGTVTLTCRSSNGAVTSSNYANWVQQKPGQAPRGLIGGTNKRAPGTPARFSGSLLGGKAALTLSGVQPEDEAVYYCALWYPNLWVFGGGTKLTVLSESATPESGPGTSPGATPESGPGTSESATPEVQLVESGGGIVQPGGSLRLSCAASGFTFSTYAMNWVRQAPGKGLEWVGRIRTKRNNYATYYADSVKGRFTISRDDSKNTVYLQMNSLKTEDTAVYYCVRHENFGNSYVSWFAHWGQGTLVTVSS
notes: also called AMX500-P7 uTCE; PSMA.262-CD3.228
B9: the Kd in experiment [6] worked out at 10.4 nM; in [7], 9.83 nM; in experiment [8] it was 33.7 nM; in [9], 26.6 nM; in [10], 1.6 nM; in experiment [11] it was 13.1 nM. The dissociation constant (Kd) in [12] turned out to be 0.5 nM; in [13], 13 nM.

B10: uTCE of AC2591 (PSMA-VHH; CB01H01R3, CD3.23) (bispecific antibody)
chain: LTGPATSGSETPGTEVQLVESGGGSVQAGGSLSLSCVASGRTFGIYVMGWFRQAPGKEREFVAAISWSGSNRLVSDSVKGRFTISRENAKNTIYLQMNGLKPEDTANYFCAASNRLYGRTWYDFNESDYWGQGTQVTVSSGGGGSGGGSELVVTQEPSLTVSPGGTVTLTCRSSNGAVTSSNYANWVQQKPGQAPRGLIGGTNKRAPGTPARFSGSLLGGKAALTLSGVQPEDEAVYYCALWYPNLWVFGGGTKLTVLGATPPETGAETESPGETTGGSAESEPPGEGEVQLLESGGGIVQPGGSLKLSCAASGFTFNTYAMNWVRQAPGKGLEWVARIRSKYNNYATYYADSVKDRFTISRDDSKNTVYLQMNNLKTEDTAVYYCVRHENFGNSYVSWFAHWGQGTLVTVSSGTAEAASASGEAGRSANHTPAG
notes: also called PSMA.2
As for B10, the Kd amounted to 1 nM in experiment [4], 1 nM in experiment [2], 1 nM in experiment [3] and 0.79 nM in experiment [14]. For the same molecule, the koff amounted to 0.000122 s⁻¹ in experiment [4], 0.00012 s⁻¹ in experiment [3] and 8.7e-05 s⁻¹ in experiment [14]. Besides, the kon was found to be 125000 M⁻¹ s⁻¹ in [4], 120000 M⁻¹ s⁻¹ in [3] and 110000 M⁻¹ s⁻¹ in [14].

The record behind these values is patent US20260055205A1 (published 2026).
